Experimental data taken from patent US20250277003A1.

Key:
[1] = molecular target: SARS-CoV-2 RBD glycan-masked mutant GM14 (SARS-CoV-2) (UniProt P0DTC2); assay: ELISA, AUC relative to RBD WT
[2] = molecular target: SARS-CoV-2 RBD glycan-masked mutant GM9 (SARS-CoV-2) (UniProt P0DTC2); assay: ELISA, AUC relative to RBD WT

Row | Substance | %AUC [1] | %AUC [2]
1 | mAb C002 (antibody) | 10.2% | 51.3%
2 | mAb CB6 (antibody) | 7.8% | 7.2%
3 | mAb CR3022 (antibody) | 72.9% | 120%
4 | mAb EY6A (antibody) | 94.5% | 115%
5 | mAb S309 (antibody) | 83.4% | 114%
